From patent publication US20210315969A1, “GLYCOPROTEINS HAVING LIPID MOBILIZING PROPERTIES AND THERAPEUTIC USES THEREOF” (Aston University, priority 2008, published 2021)

Assays:
[1] = system: adipocytes and gastrocnemius muscle; assay: Glucose uptake into adipocytes and gastrocnemius muscle of ob/ob mice treated with ZAG; assay type: in vivo; details: presence of low (1 nM) insulin
Protocol: (§1) Glucose (intake into Atlipocpyes Isolated adipocytes (5×10^4) were washed twice in 1 ml Krebs-Ringer bicarbonate buffer, pH 7.2 (KRBS) and further incubated for 10 min at room temperature in 0.5 ml KRBS containing 18.5MBq […]-^14CI deoxy-D-glucose and non-radioactive 2-deoxy-D-glucose to a final concentration of 0.1 mM. Uptake was terminated by the addition of 1 ml ice-cold glucose-free KRBS, and the cells were washed three times with 1 ml KRBS, lysed by addition of 0.5 ml 1 M NaOH and left for at least 1 h at room temperature before the radioactivity was determined by liquid scintillation counting.
(§2) Glucose Uptake into Gostrocneinius Muscle—Gastrocnemius muscles were incubated in Krebs-Henseleit bicarbonate butler for 45 min at 37° C. and then incubated for a further 10 min in 5 ml Krebs-Henseleit butler containing 185M Bq 2-[1-^14C]deoxy-D-glucose and non-radioactive 2-deoxy-D-glucose to a final concentration of 0.1 mM. The muscles were then removed and washed in 0.9% NaCl for 5 min followed by dissolution in 0.5 ml 1M NaOH and the radioactivity was determined by liquid scintillation counting.

[2] = system: epididymal adipocytes, gastrocnemius muscle and BAT; assay: Glucose uptake into epididymal adipocytes, gastrocnemius muscle and BAT of rats treated with ZAG; assay type: in vivo, Wistar rats
Protocol: FIG. 12D is a graphical diagram showing glucose uptake into gastrocnemius muscle and BAT of male Wistar rats after 10 days treatment with either ZAG or PBS. in the absence or presence of insulin (60 μU/ml). Differences between ZAG and PBS treated animals are shown as a, p<0.05, b, p<0.01 or c, p<0.001, while differences in the presence of insulin are shown as or f, p<0.001.
as §1, §2

[3] = system: murine myotubes; assay: Protein degradation and synthesis in myotubes subjected to high glucose; assay type: cell-based
Protocol: FIGS. 18A and 18B is a graphical diagram showing phenylalanine release (FIG. 18A) and protein synthesis (FIG. 18B) in C2Cl2 myotubes treated with and without ZAG for 4 h in the presence of various concentrations of glucose. Statistically significant c, P<0.001 from control; f, P<0.001 from glucose alone.
Statistically significant b, P<0.01 and c, P<0.001 from control; e, P<0.05 and f, P<0.001 from glucose alone.
Statistically significant b, P<0.01 and c, P<0.001 from control; e, P<0.05 and f, P<:0.001 from glucose alone; I, P<0.001 from glucose+SR.
This utilizes murine myotubes subjected. to high concentrations of glucose (10 or 25 mM).

[4] = system: C2Cl2 myotubes; assay: ROS formation and PKR/eIF2α phosphorylation in myotubes treated with glucose; assay type: cell-based, murine
Text: FIG. 21 is a graphical diagram showing ROS activity in C2Cl2 myotubes treated with various concentrations of glucose with and without ZAG. Statistically significant c, P<0.001 from control f, P<0.001 from glucose alone.
FIG. 22A is a pictorial diagram of a Western blot showing PKR in C2Cl2 myotubes treated with glucose with and without ZAG. Statistically significant c, P<0.001 from control f, P<0.001 from glucose alone.
FIG. 22B is a pictorial diagram of a Western blot showing elF2a in C2Cl2 myotubes treated with glucose with and without ZAG. Statistically significant c, P<0.001 from control f, P<0.001 from glucose alone.
It has been shown that formation of reactive oxygen species (ROS) is important in protein degradation induced by high glucose load. […] High glucose also induces activation (phosphoiylation) of PKR (FIG. 22A) and the subsequent phosphorylation of elf2α (FIG. 22B) as is seen in skeletal muscle of ob/ob mice, which was also attenuated by ZAG.

[5] = Interval administration / pilot scheduling study of ZAG in ob/ob mice; assay type: in vivo
Protocol: While not wanting to be limited by theory, it may be that the subjects are receiving too much ZAG or that there is receptor desensitization as is seen with TNF. A pilot study was performed with 2 mice in each group to determine optimal scheduling of ZAG delivery.

[6] = system: adipocytes; assay: Lipolytic responsiveness of adipocytes from ZAG treated ob/ob mice to isoprenaline or BRL37344; assay type: in vivo
Text: FIG. 5K is a graphical diagram showing the response of adipocytes from epididymal (ep), subcutaneous (sc) and visceral (vis) deposits from ob/ob mice treated with either PBS or ZAG for 5 days to the lipolytic effect of BRI,37344, Differences from PBS controls are indicated as *** p<0.01, while differences in the presence of PD98059 is shown as # p<0.001.
FIG. 9 is a graphical diagram showing glycerol release stimulated by isoprenaline (iso) isolated adipocytes which have been in culture up to 5 days from ob mice treated with and without ZAG.
Lipolytic Assay—Samples to be assayed were incubated with 10^5 to 2×10^5 adipocytes for 2 h in 1 ml Krebs-Ringer bicarbonate buffer, pH 7.2. The concentration of glycerol released was determined enzymatically by the method of Wieland (Wieland, O. Glycerol UV method. In Methods of Enzymatic Analysis (ed. Bergmeyer, H. U.) (Academic Press, London, UK, pp 1404-1409, 1974)). Control samples containing adipocytes alone were analysed to determine the spontaneous glycerol release. Activity was expressed as nmol glycerol released/10^5 adipocytes/2 h.
Adipocytes were removed from mice after 5 days of ZAG and their responsiveness to isoprenaline (iso) was measured after culture in the absence of ZAG (FIG. 9), The responsiveness to iso is higher in ZAG treated mice and this continues for a further 4 days (Which was when expression of ZAG and HSL were increased) and then falls on day 5 (when expression was not increased) down to values of PBS control.
The data shown in Attachment 1 is from a 5 day study where ZAG was administered at 35 μg per day i.v. on a daily basis for 5 days. At the end of the experiment tissues were removed and blotted, or functional assays were carried out with isolated adipocytes. […] When ep adipocytes were prepared and maintained in tissue culture (RPMI 1640 ±10% FCS) ZAG expression was maintained for a further 3 days, even though no ZAG was added to the culture medium (FIG. 6B). […] In fact, as discussed above, too much ZAG is more likely to lead to resistance rather than an increased response.

[7] = Glucose and triolein oxidation, tissue glucose utilization and BAT oxygen uptake in mice treated with ZAG; assay type: in vivo
Text: FIG. 12E is a graphical diagraph showing tissue Rg in ob/ob mice administered ZAG, c, p<0.001 from PBS.
FIG. 24 is a graphical diagram showing the oxidation of D-[U-^14C glucose] to ^14CO2 in ob/ob mice.
FIG. 25 is a graphical diagram showing production of ^14CO^2 from [^14C carboxy] triolein in ob/ob mice.

B1: Zinc-α2-glycoprotein (protein, listed as Homo sapiens)
chain: QENQDGRYSLTYIYTGLSKHVEDVPAFQALGSLNDLQFFRYNSKDRKSQPMGLWRQVEGMEDWKEDSQLQKAREDMETLKDIVEYYNDSNGSHVLQGRFGCEIENNRSSGAFWKYYYDGKDYIEFNKEIPAWVPFDPAAQITKQKWEAEPVYVQRAKAYLEEECPATLRKYLKYSKNILDRQDPPSVVVTSHQAPGEKKKLKCLAYDFYPGKIDVHWTRAGQVQEPELRGDVLHNGNGTYQSWVVVAVPPQDTAPYSCHVQHSSLAQPLVVPWEAS
notes: recombinant human Zinc-α2-glycoprotein, lipid mobilizing factor, expressed in HEK293F cells
- glucose uptake into epididymal and visceral adipocytes [1]: also increased glucose uptake
- glucose uptake into gastrocnemius muscle and BAT ([2]; absence of insulin, vs PBS): small, non-significant increase
- glucose uptake into adipocytes, ZAG versus PBS treated animals ([2]; presence of insulin (60 μU/ml)): no significant difference
- glucose uptake into gastrocnemius muscle and BAT ([2]; presence of insulin (60 μU/ml)): significant increase in uptake
- high glucose induced increase in protein degradation and depression of protein synthesis ([3]; ZAG 2.5 μg/ml, glucose 10 or 25 mM): completely attenuated
- protein degradation induced by 10 and 25 mM glucose ([3]; myotubes): attenuated
- glucose induced phosphorylation of PKR and eIF2α [4]: attenuated
- increase in ROS produced by glucose [4]: completely attenuates
- weight loss on long-term daily administration [5]: cessation of weight loss
- weight loss with break of 3-4 days followed by re-infusion [5]: continued weight loss
- responsiveness of adipocytes to isoprenaline ([6]; adipocytes from mice after 5 days ZAG, cultured in absence of ZAG): higher
- lipolytic response of epididymal adipocytes to the β3 agonist BRL37344 ([6]; adipocytes from mice treated 5 days): increased lipolytic response
- time the increased response to isoprenaline was maintained in tissue culture ([6]; isoprenaline 10 μM, absence of ZAG): 4 days
- glucose utilization/oxidation by brain, heart, BAT and gastrocnemius muscle [7]: increased glucose utilizationloxidation
- production of 14CO2 from D-[U-14C] glucose and [14C carboxy] triolein [7]: increased production
